Consider 1 substance from paper PMC10295924.

The assay deals with SFB-β-catenin (UniProt P35222). Description: pull-down; HEK293T cells co-transfected with MYC-LEF1, SFB-β-catenin and OTUD7B-V5 or GFP-V5, treated with 20 mM lithium chloride for 24 h; cytoplasmic and nuclear lysates pulled down with S-protein beads; immunoblot, bands quantified with ImageJ. A general note: Immunoblotting shows a protein as a band on a membrane.
Chain of UniProt P35222 (P35222 whole entry): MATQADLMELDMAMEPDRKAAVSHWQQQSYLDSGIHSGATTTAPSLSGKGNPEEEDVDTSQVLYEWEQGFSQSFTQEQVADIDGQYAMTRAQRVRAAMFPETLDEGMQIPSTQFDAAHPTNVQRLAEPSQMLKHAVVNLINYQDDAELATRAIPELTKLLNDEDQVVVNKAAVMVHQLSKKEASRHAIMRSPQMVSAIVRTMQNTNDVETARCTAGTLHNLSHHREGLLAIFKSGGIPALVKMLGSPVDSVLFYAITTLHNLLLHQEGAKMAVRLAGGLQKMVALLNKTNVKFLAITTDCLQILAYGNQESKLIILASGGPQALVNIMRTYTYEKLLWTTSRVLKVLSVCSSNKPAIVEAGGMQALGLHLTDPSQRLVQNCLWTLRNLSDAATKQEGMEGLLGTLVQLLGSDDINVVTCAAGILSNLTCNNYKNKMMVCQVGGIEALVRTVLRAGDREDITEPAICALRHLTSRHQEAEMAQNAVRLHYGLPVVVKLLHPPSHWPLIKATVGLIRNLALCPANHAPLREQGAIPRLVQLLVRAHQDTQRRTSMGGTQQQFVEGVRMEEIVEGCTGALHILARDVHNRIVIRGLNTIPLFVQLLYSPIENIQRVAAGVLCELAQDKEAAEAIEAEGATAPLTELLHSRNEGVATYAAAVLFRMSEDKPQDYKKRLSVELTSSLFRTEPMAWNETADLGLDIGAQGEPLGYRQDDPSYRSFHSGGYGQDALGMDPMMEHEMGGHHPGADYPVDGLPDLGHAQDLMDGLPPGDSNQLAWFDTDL

Regarding “MYC-LEF1 (Lymphoid enhancer-binding factor 1), full length (natural protein)”, the fold increase of β-catenin-bound LEF1 in the nucleus with OTUD7B-V5 against GFP-V5 is 4.82 fold.
